The source of these data is patent US20170096474A1 (published 2017).

Assay [1] addresses T1, BoNT/B translocation domain (HN), yeast displayed (Clostridium botulinum, UniProt P10844 442-857).
T1 sequence: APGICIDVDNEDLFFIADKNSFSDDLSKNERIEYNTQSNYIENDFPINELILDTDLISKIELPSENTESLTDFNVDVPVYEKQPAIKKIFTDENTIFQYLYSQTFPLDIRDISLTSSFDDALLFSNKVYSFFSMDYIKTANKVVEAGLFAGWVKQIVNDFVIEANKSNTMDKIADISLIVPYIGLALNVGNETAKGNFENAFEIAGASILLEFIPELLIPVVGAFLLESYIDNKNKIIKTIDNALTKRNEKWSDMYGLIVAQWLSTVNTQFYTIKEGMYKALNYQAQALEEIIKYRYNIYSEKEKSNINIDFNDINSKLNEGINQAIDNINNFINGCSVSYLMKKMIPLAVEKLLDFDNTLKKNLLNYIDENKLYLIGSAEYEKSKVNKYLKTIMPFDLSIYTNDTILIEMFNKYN
Put plainly: yeast-displayed scFv.

Assay [2] deals with T1, BoNT/B translocation domain (HN), yeast …. Put plainly: soluble scFv or IgG on yeast-displayed BoNT/B domains.
Assay [3] has the same target. Put plainly: IgG/Fab on yeast-displayed toxin domain, flow cytometry. (In general: A flow cytometer gives signals particle by particle.)
Assay [4] deals with T2, BoNT/B light chain (LC), yeast displayed (Clostridium botulinum, UniProt P10844 1-441).
T2 sequence: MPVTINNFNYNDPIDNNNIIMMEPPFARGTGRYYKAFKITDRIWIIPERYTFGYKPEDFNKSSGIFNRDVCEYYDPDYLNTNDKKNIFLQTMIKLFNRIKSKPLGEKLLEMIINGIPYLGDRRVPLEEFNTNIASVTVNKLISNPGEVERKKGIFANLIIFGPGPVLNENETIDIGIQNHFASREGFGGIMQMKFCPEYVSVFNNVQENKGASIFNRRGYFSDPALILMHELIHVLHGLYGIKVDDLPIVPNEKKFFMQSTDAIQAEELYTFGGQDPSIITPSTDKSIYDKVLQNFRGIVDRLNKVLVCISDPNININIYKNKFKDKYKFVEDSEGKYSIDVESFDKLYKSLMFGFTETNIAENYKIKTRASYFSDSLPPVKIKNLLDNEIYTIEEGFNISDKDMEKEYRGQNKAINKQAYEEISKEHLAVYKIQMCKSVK
The assay is described as follows: labeled detection mAb in flow cytometry sorting.

Assay [5] deals with T2, BoNT/B light chain (LC), yeast displayed. The assay is described as follows: yeast-displayed scFv.
The target of assay [6] is T3, Botulinum neurotoxin type B, subtype B1 (BoNT/B1) (Clostridium botulinum, UniProt P10844 2-1291).
T3 sequence: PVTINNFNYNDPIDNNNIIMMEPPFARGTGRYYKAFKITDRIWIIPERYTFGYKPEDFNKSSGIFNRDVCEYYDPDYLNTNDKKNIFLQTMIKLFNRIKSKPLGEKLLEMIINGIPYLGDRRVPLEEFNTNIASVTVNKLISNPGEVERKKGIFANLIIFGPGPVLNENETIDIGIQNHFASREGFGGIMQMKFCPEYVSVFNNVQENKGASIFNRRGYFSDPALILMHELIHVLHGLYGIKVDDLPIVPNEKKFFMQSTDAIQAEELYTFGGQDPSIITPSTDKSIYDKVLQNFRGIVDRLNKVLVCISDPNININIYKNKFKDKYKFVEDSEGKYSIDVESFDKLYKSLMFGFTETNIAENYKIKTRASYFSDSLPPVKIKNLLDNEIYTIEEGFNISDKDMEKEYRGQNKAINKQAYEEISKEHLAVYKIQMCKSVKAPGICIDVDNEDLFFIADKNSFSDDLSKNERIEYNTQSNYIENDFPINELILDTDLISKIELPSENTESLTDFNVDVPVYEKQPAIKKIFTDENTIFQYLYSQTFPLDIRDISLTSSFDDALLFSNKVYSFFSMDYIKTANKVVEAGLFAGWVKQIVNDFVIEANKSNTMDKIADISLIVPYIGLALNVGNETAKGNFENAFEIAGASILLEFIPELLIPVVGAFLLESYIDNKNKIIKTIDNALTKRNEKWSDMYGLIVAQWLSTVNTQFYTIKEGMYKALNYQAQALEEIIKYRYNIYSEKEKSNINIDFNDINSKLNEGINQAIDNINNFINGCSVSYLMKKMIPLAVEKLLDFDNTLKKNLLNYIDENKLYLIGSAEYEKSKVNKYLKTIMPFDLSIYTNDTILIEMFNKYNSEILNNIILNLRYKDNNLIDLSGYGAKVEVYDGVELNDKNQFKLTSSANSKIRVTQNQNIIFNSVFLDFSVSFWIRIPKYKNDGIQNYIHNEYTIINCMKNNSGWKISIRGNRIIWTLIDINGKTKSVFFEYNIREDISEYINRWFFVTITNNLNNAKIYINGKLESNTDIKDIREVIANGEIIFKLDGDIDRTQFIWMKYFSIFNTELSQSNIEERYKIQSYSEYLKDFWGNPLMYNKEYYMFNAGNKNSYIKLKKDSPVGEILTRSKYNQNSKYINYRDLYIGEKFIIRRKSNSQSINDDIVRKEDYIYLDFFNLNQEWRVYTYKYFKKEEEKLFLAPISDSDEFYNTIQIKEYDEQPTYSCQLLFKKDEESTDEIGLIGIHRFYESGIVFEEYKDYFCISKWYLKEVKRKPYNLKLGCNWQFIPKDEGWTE
Put plainly: flow cytometry, yeast-displayed Fab.

Assay [7] deals with T3, Botulinum neurotoxin type B, subtype B1 ….
Assay [8] concerns the target T2, BoNT/B light chain (LC), yeast displayed. Put plainly: soluble scFv or IgG on yeast-displayed BoNT/B domains.
The target in assay [9] is Botulinum neurotoxin type B, subtype B2 (BoNT/B2) (Clostridium botulinum). The assay is described as follows: flow cytometry, yeast-displayed Fab against yeast-displayed scFv.

B1: B11 scFv (scFv)
scFv: QVQLLQSAGGVVQPGRSLRLSCAASGFIFRTYGMHWVRQAPGKGLEWVAFVSSDGNNKFYSDSVKGRFTIPRDNAKNTLYLQMNSLETEDTAVYYCAKDRYPIDCSGGSCFSYGMDVWGQGTTVTVSSGGGGSGGGGSGGGGSDIVMTQSPSTLSASVGDRVTVTCRASQSINSWLAWYQQKPGKAPKLLIYEASSLESGVPSRFSGSGSGTEFTLTISSLQPDDFATYYCQQYDSYWLTFGGGTKVEIK
In the case of B1, the binding result in assay [1] was “binds”.

B2: 1B11 scFv (scFv)
scFv: QVQLLQSAGGVVQPGRSLRLSCAASGFIFRTYGMHWVRQAPGKGLEWVAFVSSDGNNKFYSDSVKGRFTIPRDNAKNTLYLQMNSLETEDTAVYYCAKDRYPIDCSGGSCFSYGMDVWGQGTTVTVSSGGGGSGGGGSGGGGSDIVMTQSPSTLSASVGDRVTVTCRASQSINSWLAWYQQKPGKAPKLLIYEASSLESGVPSRFSGSGSGTEFTLTISSLQPDDFATYYCQQYDSYWLTFGGGTKVEIK
Consider B2, for which the binding result in assay [2] is on record as “binds”.

B3: 1B18 scFv (scFv)
scFv: EVQLVQSGGGLVQPGGSRRLSCAASGFYFNAYWMTWVRQAPGKGLEWVANINLDGTEIYYLDSVKGRFTVSRDNVKNSVFLQMSSLRVEDTAVYFCARLEWGGRNGWVSPWGQGTLVTVSSGGGGSGGGGSGGGGSDVVMTQSPSSVSASVGDRVTITCRASQSISSYLNWYQQRPGKAPKLLIFAASSLQSAVPSRFSGSGSGTDFTLTISSLQPEDFATYYCQQSYSTPPTFGQGTKVEIK
For B3, the binding result in [2] is “binds”.

B4: 4E17.1 IgG (antibody, V domains shown)
VH: EVQLVRSGGNLVQPGGSLRLSCAATGPIGSHWMTWVRQAPGQGLEWVANINLDGTEKFYVDSVKGRFTVSRDNRKSSVFLQMNNLRVDDTAVYYCARLQWGGYNGWLSPWGQGTLVTVSS
VL: DIVMTQSPSSLSASVGDRVTISCRASQSIRHYVNWYQQKPGKAPKLLIYKASSLASGAPSRFSGSGSGTDFTLTISSLQPDDFATYYCQQSYSIPLTFGGGTKVEIKR
For the molecule B4, the binding result in assay [3] is listed as “binds”.

B5: A12 IgG (antibody, V domains shown)
VH: EVQLVESGGGVVQPGRSLRLSCAASGFTFSSYGMHWVRQAPGKGLEWVAVIWYDGSNKYYADSVKGRFTISRDNSKNTLYLQMNSLRAEDTAVYYCARGYSNYDYYYGMDVWGQGTTVTVSS
VL: DIQMTQSPSSLSASVGDRVTITCRASQRISNYLNWYQQKPGKAPKLLIYAASSLQSEVPSRFSGSGSGTDFTLTISSLQPEDFATYYCQQSYRPPLTFGGGTKVEIKR
Regarding B5, in [4], the binding result is “binds”.

B6: B6 scFv (scFv)
scFv: QVQLVQSGAEVKKPGESLVISCKASGDKDTFTSFWIAWVRQMPGKGLEWMGIIYAGDSDTRYSPSFQGHVNISVDRSTNTAYLQWSSLKASDTAMYYCARHDSRYKYFYFGMDVWGQGTTVTVSSGGGGSGGGGSGGGGSDVVMTQSPSSLSASVGDRITITCQAGQDISNFLNWYQQKPGKAPKLLIRDASNLETGVPSRFSGGGSGTHFTFTISSLHPEDIATYFCQQYDNLPYTFGQGTKLEIK
As for B6, the binding result in [5] is on record as “binds”.

B7: B6 Fab (Fab, V domains shown)
VH: QVQLVQSGAEVKKPGESLVISCKASGDKDTFTSFWIAWVRQMPGKGLEWMGIIYAGDSDTRYSPSFQGHVNISVDRSTNTAYLQWSSLKASDTAMYYCARHDSRYKYFYFGMDVWGQGTTVTVSS
VL: DVVMTQSPSSLSASVGDRITITCQAGQDISNFLNWYQQKPGKAPKLLIRDASNLETGVPSRFSGGGSGTHFTFTISSLHPEDIATYFCQQYDNLPYTFGQGTKLEIKR
B7: the binding result in assay [6] is “binds”.

B8: 6A12 IgG (antibody, V domains shown)
VH: QVQLVESGGGVVQPGRSLRLSCAASGFTFSSYGMHWVRQAPGKGLEWVSYISSSGSTIYYADSVKGRFTISRDNAKNSLYLQMNSLRAEDTAVYYCARVSIVGGPYGMDVWGQGTTVTVSS
VL: DIQMTQSPSSVSASVGNRVTITCRASQGISSWLAWYQQKPGKAPKLLIYAASSLQSGVPSRFSGSGSGTDFTLTISSLQPEDFATYYCQKANSFPLTFGGGTKMEIKR
Take B8: the binding result in assay [4] is on record as “binds”.

B9: 4B19.1 IgG (antibody, V domains shown)
VH: QVQLVQSGAEVKKPGASVNVSCKASGYTFTGYYIYWVRQAPGQGLEWMGWINPNSGVTKYAQKFQGRVTMTIDTSTNTAYMELNRLRADDTAVYYCAREWTQLWSPYDYWGQGTTVTVSS
VL: DIVLTQSPSTLSASVGDRVTISCRASRSIGWYLNWYQQRPGKAPKLLIYAASSLHNGVPSRFSGSGSGTEFTLTISSLQPDDFATYYCQQAFGFPRTFGQGTKVEIKR
On to B9, for which, in [7], the “fold increase in affinity, IgG against parental scFv” value was 2.25 fold.

B10: 2B29 scFv (scFv)
scFv: QVQLQESGPGLVKPSETLSLTCSVSGGSINSGTYYWTWIRQHPGKGLEWIGYIYYSGTTYYNPSLKSRVSMSVDTSKNLFSLKMNSVTAADTALYYCARGNPQYDTSGSYTGLYFDFWGQGTLVTVSSGGGGSGGGGSGGGGSQPVLTQSPSASGTPGQRVTISCSGSSSNLGSNTVSWYQQLPGTAPKLLIYSNNQRPSGVPDRFSGSKSGTSASLAISGLQSEDEADYYCATWDDSLSGGVFGGGTKLTVL
For the molecule B10, the binding result in [8] was “binds”.

B11: B11 Fab (Fab, V domains shown)
VH: QVQLLQSAGGVVQPGRSLRLSCAASGFIFRTYGMHWVRQAPGKGLEWVAFVSSDGNNKFYSDSVKGRFTIPRDNAKNTLYLQMNSLETEDTAVYYCAKDRYPIDCSGGSCFSYGMDVWGQGTTVTVSS
VL: DIVMTQSPSTLSASVGDRVTVTCRASQSINSWLAWYQQKPGKAPKLLIYEASSLESGVPSRFSGSGSGTEFTLTISSLQPDDFATYYCQQYDSYWLTFGGGTKVEIKR
B11: the fold higher affinity than the scFv in assay [9] worked out at 1.46 fold.
